# Literature values as cited in article PMC6417862.
# Molecular target: muscle actin (Oryctolagus cuniculus) (UniProt P68135)
substance,measurement,value
cofilin (from UniProt Q03048),Kd,< 300 nM
